Tests used:
[1] = target: T1, recombinant Q586B2 protein (Tb927.6.4140), produced in E. coli WK6; assay: ELISA
T1 chain: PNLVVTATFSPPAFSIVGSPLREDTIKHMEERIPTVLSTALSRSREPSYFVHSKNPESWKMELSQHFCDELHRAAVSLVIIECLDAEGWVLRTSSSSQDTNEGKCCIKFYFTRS

[2] = target: T2, native Q586B2 (Tb927.6.4140) of Trypanosoma brucei brucei parasites (Trypanosoma brucei brucei); assay: flow cytometry on purified T. brucei brucei parasites, HA-tagged Nb, Alexa-488 anti-HA IgG
T2 construct: Native protein; also called native protein
T2 chain: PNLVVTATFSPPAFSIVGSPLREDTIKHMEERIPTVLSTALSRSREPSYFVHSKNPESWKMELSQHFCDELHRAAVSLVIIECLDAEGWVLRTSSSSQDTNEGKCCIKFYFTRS
Procedure: FIG. 4A) Representative flow cytometric profile of purified, fixed and permeabilized T. brucei brucei parasites plotted in an SSC-A versus FSC-A plot and subsequently gating on single cells (FSC-H versus FSC-A plot). 10⁶ parasites in presence or absence of 5 μg of HA-tagged Nb was used per condition.

B1: Nb53 (VHH)
VHH: QVQLQESGGGSVQAGGSLRLSCSASGYTYSSHCTAWFRQAPGKEREALAAINSRSGTTYYADSVKGRFTISQDNTKNTAYLQMNSLKPEDTATYFCAALSFGCTGPLASLGQGTQVTVSS
Kd [1]: 45.5 nM

B2: Nb39 (VHH)
VHH: QVQLQESGGGLVQPGGSLRLSCTASGSIFSGYAMGWYRQAPGKQRELVAGITSGGSTIYAGSVKGRFTISRDNAKNTVYLQMNSLKPEDTAVYYCKNGTYYSARDYWGQGTQVTVSS
Kd [1]: 49.9 nM

B3: Nb27 (VHH)
VHH: QVQLQESGGGLVQPGGSLRLSCTTSRSILSIYAMGWYRQAPGKQRELVAVITSGGSTYYADSVKGRFTISRDNAKNTLYLQMNSLKPEDTALYYCARGGYGTSPQPSWGQGTQVTVSS
Kd [1]: 52 nM

B4: Nb36 (VHH)
VHH: QVQLQESGGGLVQPGGSLRLSCAASGFAFSFYWMNWVRQAPGKGLEWVSAINSGGGSTYYADSVKGRFTISRDNAKNTLYLQMNSLKPEDTAVYYCAKGIVQRGEYYGMDYWGKGTQVTVSS
Kd [1]: 11.3 nM

B5: Nb41 (VHH)
VHH: QVQLQESGGGLVQAGGSLRLSCAASGRTFSSYAMGWFRQAPGKEREFIALISWIGGSTAYADSVKGRFTISRDNAKNTLYLQMNSLKPEDTAVYYCATDRIGRHRGPGTQVTVSS
notes: Llama nanobody purified by IMAC and SEC; It was HA-tagged in flow cytometry; also called anti-Q586B2 Nb
binding result [2]: binds | Kd [1]: 14.5 nM

B6: Nb34 (VHH)
VHH: QVQLQESGGGLVQPGGSLRLSCAASGFTFSNSPMNWVRQAPGKGLEWVSAINSGGGSTYYADSVKGRFTISRDNAKNTLYLQMNSLKPEDTAVYYCAKGGRTYYSGSYYSWGMDYWGKGTQVTVSS
Kd [1]: 36.7 nM

B7: Nb58 (VHH)
VHH: QVQLQESGGGLVQPGGSLRLSCAASGRSISSIYAMGWYRQAPGKQRELVARLTSGGSSNYADSVKGRFTITRDNAQNTVYLQMNSLKPEDTAVYYCNAEPSRWWLDDDYWGQGTQVTVSS
notes: as for B5
binding result [2]: binds | Kd [1]: 36.7 nM

B8: Nb32 (VHH)
VHH: QVQLQESGGGLVQPGGSLRLSCAASGFTFSAYAMSWVRQAPGKGLEWVSTIDSGGGSTYYADSVKGRFTISRDNAKKTLYLHMNSLKPEDTAVYYCAKRGYSDYARHVWGQGTQVTVSS
notes: as for B5
binding result [2]: binds | Kd [1]: 46.6 nM

Source: patent publication US20240156935A1 (VIB VZW, published 2024)
